Laboratory results reported in publication PMC10155992.

How the values were obtained:
[1] = molecular target: VP3, inner capsid protein of mud crab reovirus (MCRV) (mud crab reovirus (MCRV)); assay: cryo-EM structure; single-particle cryo-EM of purified MCRV virions, quiescent (qMCRV) and transcribing (tMCRV), in PBS; icosahedral, C1 and D5 reconstructions; atomic models built de novo
[2] = molecular target: VP12, major outer capsid protein of mud crab reovirus (MCRV) (mud crab reovirus (MCRV)); assay: as above

Substance | stoichiometry N [1] | stoichiometry N [2]
VP3, inner capsid protein of mud crab reovirus (MCRV) (natural protein) | 2 | –
VP12, major outer capsid protein of mud crab reovirus (MCRV) (natural protein) | – | 3
